Test [1] deals with T1, rHuman IGF-1 sR, (IGF-1 sR), CF (R&D Systems Cat#391-GR) (human, UniProt P08069 31-932).
T1 construct: Bought from R&D Systems and called a soluble receptor; also called insulin-like growth factor-1 soluble receptor
As to the kind of experiment: MSD multispot ECL, antigen spotted on plate, Fab 88.1 nM; blank spot 301.

In test [2] the target is T2, rHuman HGF R/c-MET/Fc Chimera, CF (R&D Systems Cat#358-MT/CF) (human, UniProt P08581 25-932).
T2 construct: Bought from R&D Systems; also called HGF R/Fc; hepatocyte growth factor receptor (HGF R/c-Met); not shown: Fc of the bought chimera
Described as above.

Test [3] addresses T3, rHuman CD44/Fc Chimera, CF (R&D Systems Cat#3660-CD) (human, UniProt P16070 21-220).
T3 construct: Bought from R&D Systems; not shown: Fc of the bought chimera
The description is as above.

The target of test [4] is T4, rHuman ErbB2/Fc Chimera, CF (R&D Systems Cat#1129-ER) (human, UniProt P04626 23-652).
T4 construct: Bought from R&D Systems; also called human epidermal growth factor 2 receptor (ErbB2); not shown: Fc of the bought chimera
The test is described as above.

Test [5] addresses T5, rHuman EGF R/Fc Chimera, CF (R&D Systems Cat#344-ER) (human, UniProt P00533 25-645).
T5 construct: Bought from R&D Systems; also called epidermal growth factor receptor (EGF R); not shown: Fc of the bought chimera
The description is as above.

Test [6] deals with T6, Recombinant Human DLL4 (R&D Systems Cat#1506-D4/CF) (human, UniProt Q9NR61 27-524).
T6 construct: Bought from R&D Systems; also called rHuman DLL4; delta-like protein 4
The test is described as above.

In test [7] the target is T7, rHuman Erythropoietin R/Fc Chimera, CF (R&D Systems Cat#963-ER) (human, UniProt P19235 25-250).
T7 construct: Bought from R&D Systems; also called EPO R/Fc; Epo R/Fc chimera; not shown: Fc of the bought chimera
T7 sequence (looked up): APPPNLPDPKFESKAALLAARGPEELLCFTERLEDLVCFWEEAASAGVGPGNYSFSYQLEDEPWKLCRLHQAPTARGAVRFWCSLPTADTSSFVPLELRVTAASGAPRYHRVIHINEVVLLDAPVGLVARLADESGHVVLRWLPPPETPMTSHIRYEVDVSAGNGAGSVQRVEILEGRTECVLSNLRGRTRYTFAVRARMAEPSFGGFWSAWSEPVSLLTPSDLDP
The test is described as above.

For test [8], the target named is T8, rHuman P-Cadherin/Fc Chimera, CF (R&D Systems Cat#861-PC) (human, UniProt P22223 108-654).
T8 construct: Bought from R&D Systems; not shown: Fc of the bought chimera
The description is as above.

Test [9] concerns the target T9, Recombinant Human DLL4 (R&D Systems Cat#1506-D4/CF) (human, UniProt Q9NR61 27-524).
T9 construct: Bought recombinant protein; also called rHuman DLL4; delta-like protein 4
Kind of test: MSD Multispot ECL, antigen spotted on plate, Fab at 3.8 nM; blank spot 198.

The target of test [10] is T10, rHuman P-Cadherin/Fc Chimera, CF (R&D Systems Cat#861-PC) (human, UniProt P22223 108-654).
T10 construct: Bought Fc chimera; Fc part of the bought chimera not given
Described as above.

The target in test [11] is T11, rHuman Erythropoietin R/Fc Chimera, CF (R&D Systems Cat#963-ER) (human, UniProt P19235 25-250).
T11 construct: Bought Fc chimera; also called EPO R/Fc; Epo R; Fc part of the bought chimera not given
T11 sequence (looked up): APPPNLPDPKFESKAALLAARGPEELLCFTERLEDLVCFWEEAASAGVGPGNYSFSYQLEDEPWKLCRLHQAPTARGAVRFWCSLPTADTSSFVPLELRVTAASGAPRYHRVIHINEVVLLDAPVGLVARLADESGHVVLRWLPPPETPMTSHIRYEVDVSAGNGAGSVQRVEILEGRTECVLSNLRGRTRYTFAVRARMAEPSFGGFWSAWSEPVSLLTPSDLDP
The test is described as above.

Test [12] has as its target T12, rHuman Notch-1/Fc Chimera, CF (R&D Systems Cat#3647-TK) (human, UniProt P46531 19-526).
T12 construct: Bought Fc chimera; Fc part of the bought chimera not given
Described as above.

Test [13] deals with T13, rHuman CD44/Fc Chimera, CF (R&D Systems Cat#3660-CD) (human, UniProt P16070 21-220).
T13 construct: Bought Fc chimera; Fc part of the bought chimera not given
The description is as above.

Test [14] deals with T14, rHuman HGF R/c-MET/Fc Chimera, CF (R&D Systems Cat#358-MT/CF) (human, UniProt P08581 25-932).
T14 construct: Bought reagent; also called HGF R/Fc; hepatocyte growth factor receptor
Kind of test: MSD multispot ECL, antigen spotted, Fab 2383 nM; blank spot 344.

Test [15] concerns the target T15, rHuman Notch-1/Fc Chimera, CF (R&D Systems Cat#3647-TK) (human, UniProt P46531 19-526).
T15 construct: Bought reagent
Described as above.

The target in test [16] is T16, rHuman ErbB2/Fc Chimera, CF (R&D Systems Cat#1129-ER) (human, UniProt P04626 23-652).
T16 construct: Bought reagent; also called human epidermal growth factor 2 receptor
The description is as above.

Test [17] has as its target T17, Recombinant Human DLL4 (R&D Systems Cat#1506-D4/CF) (human, UniProt Q9NR61 27-524).
T17 construct: Bought recombinant protein; also called rHuman DLL4; delta-like protein 4
Described as above.

The target in test [18] is T18, rHuman IGF-1 sR, (IGF-1 sR), CF (R&D Systems Cat#391-GR) (human, UniProt P08069 31-932).
T18 construct: Bought soluble receptor; also called insulin-like growth factor-1 soluble receptor
The description is as above.

B1: Fab VH1-46_IGHD3-10*01_IGHJ4*01 & B3_IGKJ1*01 (Fab, V domains shown)
VH: QVQLVQSGAEVKKPGASVKVSCKASGYTFTSYYMHWVRQAPGQGLEWMGIINPSGGSTSYAQKFQGRVTMTRDTSTSTVYMELSSLRSEDTAVYYCAREYYYGSGSYYNDYFDYWGQGTLVTVSS
VL: not shown
notes: Tested as a Fab made in E. coli; VH was cloned into Plasmid A (CH1 constant region, His6 and Flag tags); The kappa VL was cloned into Plasmid C (kappa CL)
In the case of B1, the ECL signal in test [1] amounted to 273; in [2] it was 392; in test [3] it was 340; in test [4], 200; in [5] it was 376; in test [6], 434. The figures for the ECL signal in test [7] and in test [8] were 3370 and 278, respectively.

B2: Fab VH6-1_IGHD3-3*01_IGHJ4*01 & V4-3_IGLJ4*01 (Fab, V domains shown)
VH: QVQLQQSGPGLVKPSQTLSLTCAISGDSVSSNSAAWNWIRQSPSRGLEWLGRTYYRSKWYNDYAVSVKSRITINPDTSKNQFSLQLNSVTPEDTAVYYCAREYYDFWSGYYTDYFDYWGQGTLVTVSS
VL: QPVLTQPTSLSASPGASARLTCTLRSGINLGSYRIFWYQQKPESPPRYLLSYYSDSSKHQGSGVPSRFSGSKDASSNAGILVISGLQSEDEADYYCMIWHSSASFVFGGGTQLIIL
notes: Tested as a purified germline Fab made in E. coli; The VH was cloned into plasmid A (CH1 constant region, His6 and Flag tags) and the lambda VL into plasmid E (lambda CL)
B2: the ECL signal in test [9] was determined as 462; in test [10], 281; in [11], 407; in test [12], 383; in test [13], 419.

B3: Fab VH1-46_IGHD6-6*01_IGHJ1*01 & L6_IGKJ1*01 (Fab, V domains shown)
VH: QVQLVQSGAEVKKPGASVKVSCKASGYTFTSYYMHWVRQAPGQGLEWMGIINPSGGSTSYAQKFQGRVTMTRDTSTSTVYMELSSLRSEDTAVYYCAREEYSSSSAEYFQHWGQGTLVTVSS
VL: not shown
notes: Only variable domains are tied to the molecule; Tested as a Fab made in E. coli: heavy chain from Plasmid A (CH1 constant region, His6 and Flag tags), kappa light chain from Plasmid C (kappa CL); also called parent Hit Fab against DLL4; VH1-46_IGHD6-6*01_IGHJ1*01 & L6_IGKJ1*01 (parental)
Turning to B3, the ECL signal in [14] came out at 762 ECL signal; in [15], 690 ECL signal; in test [16] it was 454 ECL signal; in test [17], 11800 ECL signal; in [18] it was 527 ECL signal.

Values taken from patent US20120316071A1 (published 2012).
